The record followed here is US20210275657A1 (BIONTECH US, published 2021).

Test [1] addresses T1, HLA-A11:01 (human).
T1 construct: Construct not described
The test is described as follows: peptide-HLA affinity, Example 9.

The target in test [2] is T2, HLA-A03:01 (human).
T2 construct: Construct not described
The test is described as follows: peptide-HLA affinity, Example 9.

For test [3], the target named is T1, HLA-A11:01. Description: peptide-HLA stability, Example 9.
Test [4] concerns the target T2, HLA-A03:01. Description: peptide-HLA stability, Example 9.
Test [5] deals with T3, HLA-B07:02 (human).
T3 construct: Stability assay: E. coli-expressed biotinylated heavy chain with 125I-labelled b2m; MS: BAP-tagged HLA in HEK293T cells; Treated as one molecule
The test is described as follows: pMHC-I dissociation, 125I-b2m, 37C; experiment 2.

For test [6], the target named is T4, HLA-B08:01 (human).
T4 construct: Stability assay: E. coli-expressed biotinylated heavy chain with 125I-labelled b2m; MS: BAP-tagged HLA in HEK293T cells; Treated as one molecule
The test is described as follows: pMHC-I dissociation, 125I-b2m, 37C; experiment 2.

Test [7] deals with T3, HLA-B07:02. Description: pMHC-I dissociation, 125I-b2m, 37C; average of 2.
Test [8] concerns the target T4, HLA-B08:01. The test is described as follows: pMHC-I dissociation, 125I-b2m, 37C; average of 2.
Test [9] deals with T3, HLA-B07:02. The test is described as follows: competition vs radiolabeled peptide on purified HLA; measured IC50.
For test [10], the target named is T3, HLA-B07:02. The test is described as follows: pMHC-I dissociation, 125I-b2m, 37C; experiment 1.
Test [11] deals with T4, HLA-B08:01. Description: pMHC-I dissociation, 125I-b2m, 37C; experiment 1.
The target of test [12] is T3, HLA-B07:02. The test is described as follows: competition vs radiolabeled peptide on purified HLA; IC50 corrected for peptide concentration.
For test [13], the target named is T3, HLA-B07:02. Description: peptide-HLA stability, Example 9.
For test [14], the target named is T4, HLA-B08:01. Description: peptide-HLA stability, Example 9.
Test [15] concerns the target T5, HLA-A01:01 (human).
T5 construct: Construct not described
The test is described as follows: peptide-HLA stability, Example 36.

Test [16] addresses T2, HLA-A03:01. Description: peptide-HLA stability, Example 36.
Test [17] has as its target T5, HLA-A01:01. The test is described as follows: peptide-HLA affinity, Example 36.
Test [18] deals with T1, HLA-A11:01. Description: peptide-HLA affinity, Example 36.
Test [19] has as its target T2, HLA-A03:01. Description: peptide-HLA affinity, Example 36.
The target of test [20] is T3, HLA-B07:02. The test is described as follows: peptide-HLA affinity, Example 9.
The target in test [21] is T4, HLA-B08:01. Description: competition vs radiolabeled peptide on purified HLA; measured IC50.
In test [22] the target is T6, HLA-A02:01 (human).
T6 construct: Stability assay: E. coli-expressed biotinylated heavy chain with 125I-labelled b2m
The test is described as follows: peptide-HLA affinity, Example 9.

The target in test [23] is T6, HLA-A02:01. Description: peptide-HLA stability, Example 9.
Test [24] concerns the target T6, HLA-A02:01. The test is described as follows: pMHC-I dissociation, 125I-b2m, 37C; experiment 2.
The target in test [25] is T6, HLA-A02:01. The test is described as follows: pMHC-I dissociation, 125I-b2m, 37C; average of 2.
The target of test [26] is T6, HLA-A02:01. Description: competition vs radiolabeled peptide on purified HLA; measured IC50.
Test [27] addresses T6, HLA-A02:01. Description: pMHC-I dissociation, 125I-b2m, 37C; experiment 1.
For test [28], the target named is T6, HLA-A02:01. Description: competition vs radiolabeled peptide on purified HLA; IC50 corrected for peptide concentration.
The target in test [29] is T7, HLA-A24:02 (human).
T7 construct: Construct not described
The test is described as follows: peptide-HLA stability, Example 36.

Test [30] concerns the target T7, HLA-A24:02. Description: peptide-HLA affinity, Example 36.
Test [31] has as its target T7, HLA-A24:02. The test is described as follows: peptide-HLA affinity, Example 9.
The target in test [32] is T7, HLA-A24:02. Description: peptide-HLA stability, Example 9.

Consider YMFLKAESK, for which the “Observed MHC affinity” value with HLA-A11:01 [1] amounted to 1730 nM; in the test with HLA-A03:01 [2], 80 nM. Also, the figures for the “Observed MHC stability” value with HLA-A11:01 [3] and with HLA-A03:01 [4] were 0 h and 0.3 h, respectively.

What is called half-life is the time in which the quantity being followed falls by half. Lower therefore signals fast loss. By IC50 is commonly meant the concentration that gives 50% inhibition. A lower IC50 goes with greater potency. With MFATLQRSSL, the half-life in the test with HLA-B07:02 [5], in the test with HLA-B08:01 [6], in the test with HLA-B07:02 [7], with HLA-B08:01 [8], in the test with HLA-B07:02 [10] and in the test with HLA-B08:01 [11] was 0 h in each case. In addition, the values for the IC50 with HLA-B07:02 [9] and with HLA-B07:02 [12] were 350 nM and 267 nM, respectively. Moreover, the “Observed MHC stability” value in the test with HLA-B07:02 [13] and with HLA-B08:01 [14] was 0 h throughout.

On to MANGSLLNY (also called BTK C481S mutant peptide), for which the entries for the “Stability (1/2 hr)” value in the test with HLA-A01:01 [15] and with HLA-A03:01 [16] were 0.216 h and 0.238 h, respectively. Further, the Affinity in the test with HLA-A01:01 [17] stood at 439 nM; in the test with HLA-A11:01 [18] it was 536 nM; with HLA-A03:01 [19], 35.6 nM.

As to KPKRDGYMF, the half-life with HLA-B07:02 [5] amounted to 9 h; with HLA-B07:02 [7], 8.6 h; with HLA-B07:02 [10] it was 8.3 h. In addition, the “Observed MHC affinity” value with HLA-B07:02 [20] amounted to 28 nM. For the same molecule, the IC50 with HLA-B07:02 [9] and with HLA-B07:02 [12] was 28.2 nM each time. In addition, the “Observed MHC stability” value with HLA-B07:02 [13] came out at 8.6 h.

With FLKAESKIM, the half-life came out at 1.5 h with HLA-B08:01 [6], 1.2 h with HLA-B08:01 [8] and 0.8 h in the test with HLA-B08:01 [11]. Further, the “Observed MHC stability” value with HLA-B08:01 [14] was found to be 1.2 h.

VLWTTPPLQH: the “Observed MHC affinity” value turned out to be 4540 nM in the test with HLA-A11:01 [1] and 16 nM in the test with HLA-A03:01 [2]. In addition, the entries for the “Observed MHC stability” value with HLA-A11:01 [3] and with HLA-A03:01 [4] were 0 h and 0.3 h, respectively.

As for IMKPKRDGYM, the half-life in the test with HLA-B08:01 [6], with HLA-B08:01 [8] and with HLA-B08:01 [11] was 0.4 h throughout. Also, in the test with HLA-B08:01 [21], the IC50 worked out at 40.2 nM. For the same molecule, the “Observed MHC stability” value in the test with HLA-B08:01 [14] amounted to 0.4 h.

In the case of FATLQRSSL, the half-life amounted to 0.6 h with HLA-B07:02 [5]; 0 h with HLA-B08:01 [6]; 0.7 h with HLA-B07:02 [7]; 0 h with HLA-B08:01 [8]; 0.7 h in the test with HLA-B07:02 [10]; 0 h in the test with HLA-B08:01 [11]. Moreover, the “Observed MHC affinity” value with HLA-B07:02 [20] worked out at 14 nM. Moreover, the IC50 came to 14 nM in the test with HLA-B07:02 [9], 27.5 nM with HLA-B08:01 [21] and 14 nM with HLA-B07:02 [12]. The “Observed MHC stability” value with HLA-B07:02 [13] amounted to 0.7 h; in the test with HLA-B08:01 [14], 0 h.

For the molecule LHFCRSSIM, the half-life in the test with HLA-B08:01 [6], in the test with HLA-B08:01 [8] and in the test with HLA-B08:01 [11] was 0 h throughout. This molecule came in with an IC50 with HLA-B08:01 [21] of 167 nM. Also, the “Observed MHC stability” value with HLA-B08:01 [14] is 0 h.

In the case of AIQPVLWTT, in the test with HLA-A02:01 [22], the “Observed MHC affinity” value came out at 8 nM. Also, in the test with HLA-A02:01 [23], the “Observed MHC stability” value is 1.5 h.

Consider TLQRSSLWCL, for which the half-life in the test with HLA-A02:01 [24], with HLA-A02:01 [25] and with HLA-A02:01 [27] was 0.5 h in each case. In addition, the “Observed MHC affinity” value in the test with HLA-A02:01 [22] is 118 nM. The IC50 was found to be 281 nM with HLA-A02:01 [26] and 118 nM with HLA-A02:01 [28]. The “Observed MHC stability” value in the test with HLA-A02:01 [23] was 0.5 h.

As to KIMFATLQR, the “Observed MHC affinity” value is 23 nM with HLA-A11:01 [1] and 3 nM in the test with HLA-A03:01 [2]. The entries for the “Observed MHC stability” value with HLA-A11:01 [3] and in the test with HLA-A03:01 [4] were 8.9 h and 5.6 h, respectively.

For YMANGSLLNY (also called BTK C481S mutant peptide), the “Stability (1/2 hr)” value in the test with HLA-A01:01 [15] amounted to 0.866 h; with HLA-A03:01 [16] it was 0.279 h. In addition, the Affinity was 13.2 nM in the test with HLA-A01:01 [17], 974 nM with HLA-A11:01 [18] and 95.9 nM with HLA-A03:01 [19].

For EYMANGSLL (also called BTK C481S mutant peptide), the “Stability (1/2 hr)” value in the test with HLA-A24:02 [29] was 5.72 h. The Affinity with HLA-A24:02 [30] is 4.96 nM.

For the molecule QPVLWTTPPL, the “Observed MHC affinity” value with HLA-B07:02 [20] stood at 109 nM. In addition, in the test with HLA-B07:02 [13], the “Observed MHC stability” value worked out at 1.4 h.

Take EPHLALQPL: the “Observed MHC stability” value with HLA-B07:02 [13] was determined as 7.2 h; with HLA-B08:01 [14], 0 h.

With ESKIMFATL, the half-life in the test with HLA-B08:01 [6] is 1.6 h; in the test with HLA-B08:01 [8] it was 1.3 h; in the test with HLA-B08:01 [11], 1 h. In addition, the IC50 with HLA-B08:01 [21] worked out at 23.3 nM. In the test with HLA-B08:01 [14], the “Observed MHC stability” value was 1.3 h.

With VLPEPHLAL, the “Observed MHC affinity” value in the test with HLA-A02:01 [22] worked out at 16 nM. In the test with HLA-A02:01 [23], the “Observed MHC stability” value came to 1.1 h.

Consider KPKRDGYMFL, for which the half-life in the test with HLA-B07:02 [5], with HLA-B07:02 [7] and in the test with HLA-B07:02 [10] was 3.3 h throughout. In the test with HLA-B07:02 [20], the “Observed MHC affinity” value turned out to be 98 nM. Moreover, the figures for the concentration for half-maximal inhibition (IC50) with HLA-B07:02 [9] and with HLA-B07:02 [12] were 115 nM and 98.1 nM, respectively. In addition, in the test with HLA-B07:02 [13], the “Observed MHC stability” value came to 3.3 h.

On to FLKAESKIMF, for which the half-life in the test with HLA-B08:01 [6], with HLA-B08:01 [8] and in the test with HLA-B08:01 [11] was 0 h in each case. Also, in the test with HLA-B08:01 [21], the IC50 turned out to be 90 nM. Also, the “Observed MHC stability” value with HLA-B08:01 [14] was 0 h.

On to GPPARVPAV, for which the half-life in the test with HLA-B07:02 [5] came out at 1.8 h; with HLA-B07:02 [7], 1.6 h; with HLA-B07:02 [10], 1.5 h. Also, the “Observed MHC affinity” value with HLA-B07:02 [20] was determined as 221 nM. Moreover, the IC50 stood at 282 nM with HLA-B07:02 [9] and 221 nM in the test with HLA-B07:02 [12]. Further, in the test with HLA-B07:02 [13], the “Observed MHC stability” value is 1.6 h.

With MFLKAESKI, the “Observed MHC affinity” value with HLA-A24:02 [31] stood at 332 nM. For the same molecule, the “Observed MHC stability” value with HLA-A24:02 [32] amounted to 0.2 h.
